Data set [1] deals with the molecule itself. The experiment in a line: gel filtration chromatography with dTomato (dimer) and mCherry (monomer) as size standards (self-association). From the text: (§1) FIG. 4: Characterization of mTFP1 by Gel Filtration Chromatography. Gel filtration chromatography elution profile with detection at either 450 nm or 550 nm. The upper profile is a co-injection of dTFP0.2 and mCherry (Shaner, 2004) (a red monomer), the middle profile is dTomato (Shaner, 2004) (a red dimer) and mTFP1, and the lower profile is mTFP1 alone. The small 450 nm peak at the dimer elution volume is due to the weak absorbance of dTomato at this wavelength.
(§2) The non-oligomeric structure of mTFP variants was determined by gel filtration chromatography on a HiLoad 16/60 Superdex 75 pg gel filtration column. Samples of the dimeric dTomato and the monomeric mCherry proteins (Shaner, 2004) were expressed and purified as described above and used as size standards. The AKTA basic liquid chromatography system (GE Healthcare) can monitor multiple wavelengths simultaneously. Purified TFP variants were mixed with either dTomato or mcherry and their respective elution profiles monitored separately at 450 nm and 550 nm, respectively.

Data set [2] deals with the molecule itself. The experiment in a line: self-association (homodimer); gel filtration chromatography (FIG. 4).
Text: as §1, §2
A general note: Size exclusion chromatography separates by hydrodynamic size, large species first.

Data set [3] deals with the molecule itself. Description: gel filtration chromatography (self-association). As to the method: as §2

B1: mTFP1 (other)
chain: MVSKGEETTMGVIKPDMKIKLKMEGNVNGHAFVIEGEGEGKPYDGTNTINLEVKEGAPLPFSYDILTTAFAYGNRAFTKYPDDIPNYFKQSFPEGYSWERTMTFEDKGIVKVKSDISMEEDSFIYEIHLKGENFPPNGPVMQKKTTGWDASTERMYVRDGVLKGDVKHKLLLEGGGHHRVDFKTIYRAKKAVKLPDYHFVDHRIEILNHDKDYNKVTVYESAVARNSTDGMDELYK
notes: Engineered monomeric teal fluorescent protein derived from Clavularia cFP484; Expressed from pBAD/HisB and purified on Ni-NTA; also called mTFP1.0
For B1, the binding result in data set [1] is reported as “no binding”.

B2: dTFP0.2 (other)
chain: MVSKGEETTMGVIKPDMKIKLKMEGNVNGHAFVIEGEGEGKPYDGTNTVNLEVKEGAPLPFSYDILSNAFQYGNRAFTKYPDDIANYFKQSFPEGYSWERTMTFEDKGIVKVKSDISMEEDSFIYEIRLKGKNFPPNGPVMQKKTLKWEPSTEILYVRDGVLVGDISHSLLLEGGGHYRCDFKTIYKAKKVVKLPDYHFVDHRIEILNHDKDYNKVTLYENAVARYSLLPPQAGMDELYK
notes: dTFP0.1 with D81N and S226P; Vector His tag probably present; also called dTFP0.20
As for B2, the binding result in data set [2] was “binds”.

B3: mTFP0.3 (other)
chain: MVSKGEETTMGVIKPDMKIKLKMEGNVNGHAFVIEGEGEGKPYDGTNTVNLEVKEGAPLPFSYDILSNAFQYGNRAFTKYPDDIANYFKQSFPEGYSWERTMTFEDKGIVKVKSDISMEEDSFIYEIRLKGKNFPPNGPVMQKKTLKWEPSTEILYVRDGVLVGDIKHKLLLEGGGHYRCDFKTIYKAKKVVKLPDYHFVDHRIEILNHDKDYNKVTLYENAVARYSLLPPQAGMDELYK
notes: dTFP0.2 with S162K and S164K; reported as a monomer; Substitution positions follow the DsRed-consistent numbering; Vector His tag probably present
As to B3, the binding result in data set [3] was “no binding”.

The values above are taken from patent publication US20090170194A1 (GOVERNORS OF THE UNIVERSITY OF ALBERTA, published 2009).
